Assay [1] has as its target T1, C-term Biotin Nav1.7 (3-1) peptide, human (human, not fully specified; C-terminal biotin attached via a G4S linker).
T1 construct: Synthetic peptide; also called Human Nav1.7 3-1 C-term biotin
T1 peptide: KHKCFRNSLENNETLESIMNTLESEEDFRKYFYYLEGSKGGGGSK
As to the kind of experiment: SPR, captured biotin-peptide, antibody analyte. The procedure: (§1) The binding affinities of anti-Naᵥ 1.7 antibodies to Naᵥ 1.7 loop peptides were determined by Biacore. For monovalent kinetic experiments, antibodies were captured through the Fc region via a goat anti-Fc-coupled biosensor surface, and the peptides (as analyte) were injected over this captured antibody surface. For bivalent (avidity-driven) kinetic experiments, biotinylated peptides corresponding to the Naᵥ 1.7 3-1, 3-3, or paddle loop sequences were captured on a NeutrAvidin sensor surface, and anti-Naᵥ 1.7 antibodies (as analyte) were injected over this surface. Following the capture step, each analyte was individually injected at several concentrations over its respective capture surface, and changes in bound surface units (RU) were monitored. The dissociation rate is independent of the concentration of analyte used in the experiment, and the dissociation rate constant (kd) was determined from the change in antibody-bound analyte RU over time. The Biacore kinetic data were obtained using a double referencing procedure. The double referencing was conducted by first subtracting any interaction of the analyte over the reference surface (i.e., the anti-Fc coupled surface alone or the NeutrAvidin surface alone), thereby correcting for nonspecific binding to capture surface and for refractive index changes. Control buffer injections (no analyte) over the antibody- or peptide-captured surfaces were also performed to allow subtraction of RU signal changes resulting from the natural dissociation of captured binding partner from the sensor surface. The kinetic parameters were obtained by globally fitting the data for all concentrations tested for a given peptide or antibody to a 1:1 binding model using Biacore T100 Evaluation Software version 2.0.2. The KD was calculated as the dissociation rate constant divided by the association rate constant (KD=kd/kₐ). The dissociative half-life (t_{1/2}) was calculated from the dissociation rate constant (t_{1/2}=In2/kd).
(In general: Surface plasmon resonance follows binding to a sensor surface in real time, without labels.)

Assay [2] concerns the target T2, Native Nav1.7 (3-1) peptide, rat (rat).
T2 construct: Synthetic peptide; also called Rat Nav1.7 3-1 native
T2 peptide: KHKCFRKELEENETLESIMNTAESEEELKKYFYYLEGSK
As to the kind of experiment: SPR, captured antibody, peptide analyte. The procedure:
as §1

Assay [3] addresses T3, Native Nav1.7 (3-1) peptide, human (human).
T3 construct: Synthetic peptide (Celtek), unbiotinylated; also called Human Nav1.7 3-1 native; Nav1.7 3-1 native peptide
T3 peptide: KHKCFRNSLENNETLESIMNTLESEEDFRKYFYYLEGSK
As to the kind of experiment: SPR, captured antibody, peptide analyte. On the procedure:
as §1

The target of assay [4] is T4, N-Term Biotin Nav1.7 (3-1) peptide, mulatta (mulatta (monkey), not fully specified; N-terminal biotin attached via a G4S linker).
T4 construct: Synthetic peptide; also called Mulatta Nav1.7 3-1 N-term biotin; monkey
T4 peptide: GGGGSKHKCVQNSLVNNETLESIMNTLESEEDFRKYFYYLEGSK
Put plainly: SPR, captured antibody, peptide analyte. The procedure:
as §1

The target of assay [5] is T5, N-Term Biotin Nav1.7 (3-1) peptide, mouse (mouse, not fully specified; N-terminal biotin attached via a G4S linker).
T5 construct: Synthetic peptide; also called Mouse Nav1.7 3-1 N-term biotin
T5 peptide: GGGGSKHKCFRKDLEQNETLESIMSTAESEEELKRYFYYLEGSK
Put plainly: SPR, captured antibody, peptide analyte. On the procedure:
as §1

In assay [6] the target is T6, N-Term Biotin-Nav1.7 (3-1) peptide, human (human, not fully specified; N-terminal biotin attached via a G4S linker).
T6 construct: ELISA peptide
T6 peptide: T4 peptide with V10F, Q11R, V15E
Put plainly: ELISA on coated peptide, antibody 1 ug/ml, OD450 grade. On the procedure: (§2) Anti-Naᵥ 1.7 antibodies were tested for their ability to bind to the Naᵥ 1.7 peptides. The various peptides were coated overnight onto 96-well Nunc Immunosorp plates at a concentration of 4 μg/mL in PBS, followed by blocking for 1 hour in a suitable blocking agent. For biotinylated peptides, avidin was first coated on Nunc Immunosorp plates at 2 μg/mL in PBS overnight, followed by blocking as described, and the plate was then coated with biotinylated peptides at a concentration of 0.4 μg/mL and incubated for 1 hour at room temperature. Purified anti-Naᵥ 1.7 antibodies were diluted to a final concentration of 0.1 μg/mL and 1.0 μg/mL and added to the wells of the coated microtiter plates followed by incubation for 1 hour at room temperature. Bound antibodies were detected with horseradish peroxidase (HRP) conjugated anti-mouse or anti-human IgG (Jackson Immuno Research Lab, West Grove, Pa.) depending on the antibody species and developed by colorimetric response using tetramethylbenzidine (TMB) substrate (BD Biosciences). Absorbance was read at OD₄₅₀ on a plate reader for 0.1 second.
(§3) Values in Table 11 represent absolute binding ranges (at OD450) to plate-coated peptides for antibodies added at 1 μg/ml as follows: OD450<0.2: −; 0.2<OD450<1: +; 1<OD450<2: ++; 2<OD450<4: +++; NT: Not Tested.
In general terms: In an ELISA, binding on a coated surface is turned into a signal by an enzyme label.

Assay [7] concerns the target T2, Native Nav1.7 (3-1) peptide, rat. Described as above. The procedure:
as §2, §3

In assay [8] the target is T4, N-Term Biotin Nav1.7 (3-1) peptide, …. The description is as above. The procedure:
as §2, §3

Assay [9] addresses T5, N-Term Biotin Nav1.7 (3-1) peptide, …. The description is as above. On the procedure: as §2, §3
In assay [10] the target is T7, full-length human Nav1.7 fused at its N-terminus to GFP, expressed in HEK293 cells (human, UniProt Q15858 1-1988).
T7 construct: Voltage-gated sodium channel alpha subunit; In the Western blot it stood as denatured cell lysate; also called hNav 1.7-GFP-HEK293; Nav 1.7-GFP-HEK293; not shown: green fluorescent protein (GFP) at the N-terminus
As to the kind of experiment: flow cytometry; % stained hNav1.7-GFP-HEK293 minus parental HEK293. On the procedure: The binding of anti-Naᵥ 1.7 human antibodies to full-length Naᵥ 1.7 expressed in HEK293 cells was determined by flow cytometry (FACS). HEK293 cells were stably-transfected with full-length human Nav1.7 fused at its N-terminus to the green fluorescent protein (GFP) to generate cell line hNaᵥ 1.7-GFP-HEK293. Antibody binding to the transfected cells overexpressing Naᵥ 1.7 was compared to binding to the parental HEK293 cell line. To perform the binding experiments, adherent cells were collected using 1 mM EDTA in PBS, washed and re-suspended in cold PBS containing 5% FBS. For each binding experiment, the anti-Naᵥ 1.7 antibody (at concentrations ranging from 1 nM to 13 nM), was added to 250,000 cells in 500 μL of PBS with 5% FBS. After incubation for 20 minutes on ice, the secondary antibody, recognizing either human-Fc and conjugated to cyanine 5 (Cy5) or recognizing mouse-Fc and conjugated to allophyocyanin (APC), was then added to the cell mixture at a final secondary antibody concentration of 1.7 nM. After incubating for 20 minutes on ice, the cells were resuspended in PBS+5% FBS and then sorted and analyzed on a flow cytometer to determine relative binding by the candidate antibodies. For FACS analysis, gating was applied to examine only healthy live cells in the antibody binding experiments, and percentage stained was recorded. Staining of secondary antibodies alone to Naᵥ 1.7-GFP-HEK293 cells gave low background signals (1-2%). Specific binding was measured as the percent binding to Naᵥ 1.7-GFP-HEK293 cells minus percent binding to parental HEK293 cells.

The target in assay [11] is T7, full-length human Nav1.7 fused at its …. As to the kind of experiment: cell-based or functional assay.

Substitutions are numbered along the chain they refer to.

B1: H1M834N (antibody, V domains shown)
VH: QVQLVESGGGVVQPGRSQRLSCAASGFTFSHYGMHWVRQAPGKGLEWVAVISYDGNNKHYADSVKGRFTTSRDNSKNTLFLQMNSLRAEDTAVYYCARGYSGYVLDYWGQGTLVTVSS
VL: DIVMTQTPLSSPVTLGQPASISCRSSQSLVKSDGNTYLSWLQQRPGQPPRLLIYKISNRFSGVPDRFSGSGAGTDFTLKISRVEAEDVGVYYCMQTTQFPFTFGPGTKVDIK
As usually defined, the Kd is the constant that tells how readily two partners part at equilibrium. Low values mean tighter binding, high ones weaker binding. On to B1, for which the Kd came out at 0.751 nM in [1]; 10.2 nM in assay [2]; 5.53 nM in assay [3]; 2.39 nM in assay [4]; 19.2 nM in assay [5]. The t1/2 in assay [1] came out at 82.5 min; in assay [2] it was 2.3 min; in assay [3] it was 12 min; in assay [4] it was 20.3 min; in assay [5], 2.8 min. Moreover, the OD450 fell in the range of 2 to 4 od in [6], 2 to 4 od in assay [7], 2 to 4 od in assay [8] and 1 to 2 od in assay [9]. In assay [10], the “% Binding Nav1.7” value was 4.8%. In addition, the “Current blocking (Average % inhibition), IonWorks Quattro, 223 nM antibody” value (“Current blocking (Average % inhibition)” for short) in assay [11] is -14%.

B2: H1M875N (antibody, V domains shown)
VH: B1 VH
VL: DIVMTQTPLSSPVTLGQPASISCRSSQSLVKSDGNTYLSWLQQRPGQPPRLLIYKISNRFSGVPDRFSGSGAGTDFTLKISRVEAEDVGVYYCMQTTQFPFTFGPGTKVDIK
notes: also called H1H875N
As for B2, the Kd in assay [1] is 0.78 nM; in [2], 6.7 nM; in assay [3], 5.85 nM; in assay [4] it was 1.89 nM; in assay [5], 12 nM. Besides, the t1/2 in assay [1] worked out at 87.2 min; in assay [2], 3 min; in [3] it was 12.5 min; in [4] it was 26.5 min; in assay [5] it was 3.2 min. Moreover, the OD450 in assay [6], in [7], in assay [8] and in [9] was 2 to 4 od throughout. Also, in assay [10], the “% Binding Nav1.7” value came to 5.9%. Further, the “Current blocking (Average % inhibition)” value in assay [11] turned out to be 25%.

B3: H1M839N (antibody, V domains shown)
VH: QVQLVESGGGVVQPGRSLRLSCAASGFTFSNYGMHWVRQAPGKGLEWVAVTSYDGSNKHYADSVKGRFSTSRDNPKNTLYLQMDSLRGEDTAVYYCARGYSGFVLDNWGQGTLVTVSS
VL: DIVMTQTPLSSPVTLGQPASISCRSSQSLVKSDGNTYLSWLQQRPGQPPRLLIYKISNRFSGVPDRFSGSGAGTDFTLKISRVEAEDVGIYYCMQTTQFPFTFGPGTKVDIK
As to B3, the Kd in assay [1] was 0.692 nM; in assay [2], 7.11 nM; in assay [3], 3.32 nM; in [4] it was 1.47 nM; in assay [5], 15.1 nM. Further, the t1/2 in assay [1] was determined as 137 min; in assay [2], 3.2 min; in [3] it was 18.2 min; in [4], 28.7 min; in [5], 3.1 min. Moreover, the OD450 in [6], in [7], in assay [8] and in [9] was 2 to 4 od throughout. Further, in [10], the “% Binding Nav1.7” value was 5.1%. For the same molecule, in assay [11], the “Current blocking (Average % inhibition)” value is 13%.

B4: H4H368B (antibody, V domains shown)
VH: EVQLVQSGGGVVQPGRSLRLSCAASGFTFSSYGMHWVRQAPGKGLEWVAVISYQESNKHYVDSVKGRFTISRDNSKNTLYLQMNSLRAEDTAVYYCAKSRGYSYGLGYWGQGTLVTVSS
VL: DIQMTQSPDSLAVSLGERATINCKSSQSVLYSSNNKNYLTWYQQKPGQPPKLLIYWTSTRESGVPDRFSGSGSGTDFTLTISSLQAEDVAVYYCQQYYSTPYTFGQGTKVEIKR
In [2], B4 gave a Kd of 127 nM and a t1/2 of 0.32 min. For the same molecule, in assay [5], binding was characterised by a dissociation constant (Kd) of 12 nM and the t1/2 was 964 min. In addition, the OD450 in assay [7] is 2 to 4 od.

B5: H4H397B (antibody, V domains shown)
VH: B4 VH with E1Q, V50L, Q54A, E55G, S56I, K58E, H59Y, V61A, N74D, A88V
VL: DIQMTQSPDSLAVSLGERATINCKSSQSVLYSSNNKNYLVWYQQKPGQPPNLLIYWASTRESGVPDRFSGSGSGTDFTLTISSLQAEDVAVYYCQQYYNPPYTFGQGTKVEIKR
B5: the Kd in [1] amounted to 0.299 nM; in assay [2], 14.2 nM; in [3] it was 2.37 nM; in [4], 0.097 nM; in [5], 43.5 nM. Besides, the t1/2 in assay [1] worked out at 206 min; in [2], 3.3 min; in assay [3], 34 min; in [4], 289 min; in assay [5], 3.92 min. Further, the OD450 in [6], in assay [7], in [8] and in assay [9] was 2 to 4 od each time. Moreover, the “Current blocking (Average % inhibition)” value in assay [11] is -50%.

The values are drawn from patent US20160024208A1 (Regeneron, published 2016).
